# Publication PMC3153611
# Biological target: SRPK1 (UniProt Q96SB4)
# Assay: rapid quench single-turnover, fast-phase amplitude
# Settings: reference: 0P complex (no pre-phosphorylation)
row,Substance,other: fast-phase amplitude αp at 1 µM SRPK1
1,SRSF1 (aka ASF/SF2) (from UniProt Q07955) 8P complex (8.3 phosphates in RS1),weaker; reference 1.0 ± 0.18
2,SRSF1 (aka ASF/SF2) (from UniProt Q07955) 1P complex (1.2 phosphates in RS1),same; reference 1.0 ± 0.18
3,SRSF1 (aka ASF/SF2) (from UniProt Q07955) 4P complex (4 phosphates in RS1),same; reference 1.0 ± 0.18
4,SRSF1 (aka ASF/SF2) (from UniProt Q07955) 6P complex (6.3 phosphates in RS1),weaker; reference 1.0 ± 0.18
